Data set [1] is described as follows: In vivo pharmacokinetic (PK) studies in rats. The arrangement: species or system Sprague-Dawley rats. The settings on record: rat, male Sprague-Dawley rats, single SC dose 1.0 mg/kg, serum ELISA; for AUC(0-inf): read-out: Rat PK AUC Total; for level at time molar at 24 h: read-out: Rat PK C24. The essentials: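 Male Sprague-Dawley rats (n=3) given a single 1 mg/kg IV or SC dose of relaxin constructs in 20 mM histidine, 750 mM NaCl, pH 6.0; jugular serum sampled to 72 h. Serum relaxin by ELISA; Cmax, AUCinf, C24 and half-life from non-compartmental analysis of individual profiles.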

Another data set has as its target T1, human RXFP1 receptor (Homo sapiens, UniProt Q9HBX9).
T1 construct: expressed in transfected cells
T1 sequence (Q9HBX9 1-757): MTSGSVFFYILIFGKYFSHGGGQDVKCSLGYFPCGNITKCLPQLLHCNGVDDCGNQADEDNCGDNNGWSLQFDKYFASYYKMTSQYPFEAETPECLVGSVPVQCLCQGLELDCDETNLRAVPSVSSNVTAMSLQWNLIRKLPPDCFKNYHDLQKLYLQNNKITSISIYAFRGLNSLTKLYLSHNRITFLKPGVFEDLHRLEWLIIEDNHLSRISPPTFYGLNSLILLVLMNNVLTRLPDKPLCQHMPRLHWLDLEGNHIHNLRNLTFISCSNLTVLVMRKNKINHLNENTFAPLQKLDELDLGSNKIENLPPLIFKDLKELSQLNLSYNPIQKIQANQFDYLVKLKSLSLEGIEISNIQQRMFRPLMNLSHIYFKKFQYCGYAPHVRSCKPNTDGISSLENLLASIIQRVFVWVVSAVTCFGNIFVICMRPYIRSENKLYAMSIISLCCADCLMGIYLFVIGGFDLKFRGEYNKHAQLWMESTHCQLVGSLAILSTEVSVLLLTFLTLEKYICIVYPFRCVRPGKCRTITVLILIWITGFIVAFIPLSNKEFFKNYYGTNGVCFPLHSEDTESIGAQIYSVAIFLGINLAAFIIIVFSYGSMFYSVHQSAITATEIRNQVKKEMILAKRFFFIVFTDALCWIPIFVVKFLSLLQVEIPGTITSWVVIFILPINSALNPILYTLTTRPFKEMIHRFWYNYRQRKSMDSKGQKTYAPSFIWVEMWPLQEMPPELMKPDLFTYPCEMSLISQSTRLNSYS
Kind of data set: Intracellular cAMP accumulation assay. The class given is cell-based.

Where two headings read alike, the source gives them in different places.

Regarding `CC[C@H](C)[C@@H]1NC(=O)[C@H](C)NC(=O)[C@H]([C@@H](C)CC)NC(=O)[C@H](CCC(N)=O)NC(=O)[C@H](C)NC(=O)[C@H](CCCNC(=N)N)NC(=O)[C@H](C(C)C)NC(=O)[C@H](CC(C)C)NC(=O)[C@H](CCC(=O)O)NC(=O)[C@H](CCCNC(=N)N)NC(=O)CNC(=O)[C@@H](NC(=O)[C@H](CC(C)C)NC(=O)[C@H](CCCCN)NC(=O)[C@@H](NC(=O)[C@@H](NC(=O)[C@H](CCC(=O)O)NC(=O)[C@H](CCC(=O)O)NC(=O)[C@H](CCSC)NC(=O)[C@H](Cc2c[nH]c3ccccc23)NC(=O)[C@H](CO)NC(=O)[C@H](C)N)C(C)C)[C@@H](C)CC)CSSC[C@@H]2NC(=O)[C@@H](NC(=O)[C@H](CCCCN)NC(=O)[C@H](CC(N)=O)NC(=O)[C@H](C)NC(=O)[C@H](CC(C)C)NC(=O)[C@H](C)NC(=O)[C@H](CO)NC(=O)[C@H](Cc3ccc(O)cc3)NC(=O)[C@H](CC(C)C)NC(=O)[C@@H](N)Cc3ccc(/C(C)=N/OCCNC(=O)CNC(=O)[C@H](CO)NC(=O)[C@@H]4CCCN4C(=O)CNC(=O)[C@H](CO)NC(=O)[C@@H]4CCCN4C(=O)CC[C@H](NC(=O)CCCCCCCCCCCCCC(=O)O)C(=O)O)cc3)CSSC[C@H](NC(=O)CNC(=O)[C@H](C(C)C)NC(=O)[C@H](Cc3c[nH]cn3)NC2=O)C(=O)N[C@@H]([C@@H](C)O)C(=O)N[C@@H](CCCCN)C(=O)N[C@@H](CCCNC(=N)N)C(=O)N[C@@H](CO)C(=O)N[C@@H](CC(C)C)C(=O)N[C@@H](C)C(=O)N[C@@H](CCCNC(=N)N)C(=O)N[C@@H](Cc2ccccc2)C(=O)N[C@H](C(=O)O)CSSC[C@@H](C(=O)NCC(=O)N[C@@H](CCSC)C(=O)N[C@@H](CO)C(=O)N[C@H](C(=O)N[C@@H](Cc2c[nH]c3ccccc23)C(=O)N[C@@H](CO)C(=O)O)[C@@H](C)O)NC1=O` [AQ1-GSPGSP-Glu^γ-C14-COOH], in data set [1], the AUC(0-inf) was found to be 1.98 µM·h and the level at time molar at 24 h worked out at 5 nM. This compound yielded an EC50 on human RXFP1 receptor of 0.29 nM.
In the case of `CC[C@H](C)[C@@H]1NC(=O)[C@H](C)NC(=O)[C@H]([C@@H](C)CC)NC(=O)[C@H](CCC(N)=O)NC(=O)[C@H](C)NC(=O)[C@H](CCCNC(=N)N)NC(=O)[C@H](C(C)C)NC(=O)[C@H](CC(C)C)NC(=O)[C@H](CCC(=O)O)NC(=O)[C@H](CCCNC(=N)N)NC(=O)CNC(=O)[C@@H](NC(=O)[C@H](CC(C)C)NC(=O)[C@H](CCCCN)NC(=O)[C@@H](NC(=O)[C@@H](NC(=O)[C@H](CCC(=O)O)NC(=O)[C@H](CCC(=O)O)NC(=O)[C@H](CCSC)NC(=O)[C@H](Cc2c[nH]c3ccccc23)NC(=O)[C@H](CO)NC(=O)[C@H](C)N)C(C)C)[C@@H](C)CC)CSSC[C@@H]2NC(=O)[C@@H](NC(=O)[C@H](CCCCN)NC(=O)[C@H](CC(N)=O)NC(=O)[C@H](C)NC(=O)[C@H](CC(C)C)NC(=O)[C@H](C)NC(=O)[C@H](CO)NC(=O)[C@H](Cc3ccc(O)cc3)NC(=O)[C@H](CC(C)C)NC(=O)[C@@H](N)Cc3ccc(C(C)=NOCCNC(=O)[C@H](CCCCN)NC(=O)[C@H](CCCCN)NC(=O)CC[C@H](NC(=O)CCCCCCCCCCCCCC(=O)O)C(=O)O)cc3)CSSC[C@H](NC(=O)CNC(=O)[C@H](C(C)C)NC(=O)[C@H](Cc3c[nH]cn3)NC2=O)C(=O)N[C@@H]([C@@H](C)O)C(=O)N[C@@H](CCCCN)C(=O)N[C@@H](CCCNC(=N)N)C(=O)N[C@@H](CO)C(=O)N[C@@H](CC(C)C)C(=O)N[C@@H](C)C(=O)N[C@@H](CCCNC(=N)N)C(=O)N[C@@H](Cc2ccccc2)C(=O)N[C@H](C(=O)O)CSSC[C@@H](C(=O)NCC(=O)N[C@@H](CCSC)C(=O)N[C@@H](CO)C(=O)N[C@H](C(=O)N[C@@H](Cc2c[nH]c3ccccc23)C(=O)N[C@@H](CO)C(=O)O)[C@@H](C)O)NC1=O` [AQ1-KK-Glu^γ-C14-COOH], in data set [1], the AUC(0-inf) was 0.451 µM·h and the level at time molar at 24 h is 1.5 nM. In addition, the EC50 at human RXFP1 receptor is 0.34 nM.
Turning to `CC[C@H](C)[C@@H]1NC(=O)[C@H](C)NC(=O)[C@H]([C@@H](C)CC)NC(=O)[C@H](CCC(N)=O)NC(=O)[C@H](C)NC(=O)[C@H](CCCNC(=N)N)NC(=O)[C@H](C(C)C)NC(=O)[C@H](CC(C)C)NC(=O)[C@H](CCC(=O)O)NC(=O)[C@H](CCCNC(=N)N)NC(=O)CNC(=O)[C@@H](NC(=O)[C@H](CC(C)C)NC(=O)[C@H](CCCCN)NC(=O)[C@@H](NC(=O)[C@@H](NC(=O)[C@H](CCC(=O)O)NC(=O)[C@H](CCC(=O)O)NC(=O)[C@H](CCSC)NC(=O)[C@H](Cc2c[nH]c3ccccc23)NC(=O)[C@H](CO)NC(=O)[C@H](C)N)C(C)C)[C@@H](C)CC)CSSC[C@@H]2NC(=O)[C@@H](NC(=O)[C@H](CCCCN)NC(=O)[C@H](CC(N)=O)NC(=O)[C@H](C)NC(=O)[C@H](CC(C)C)NC(=O)[C@H](C)NC(=O)[C@H](CO)NC(=O)[C@H](Cc3ccc(O)cc3)NC(=O)[C@H](CC(C)C)NC(=O)[C@@H](N)Cc3ccc(C(C)=NOCCNC(=O)[C@H](CCCCN)NC(=O)[C@H](CCCCN)NC(=O)[C@H](CCCCN)NC(=O)CNC(=O)CNC(=O)CNC(=O)CC[C@H](NC(=O)CCCCCCCCCCCCC(=O)O)C(=O)O)cc3)CSSC[C@H](NC(=O)CNC(=O)[C@H](C(C)C)NC(=O)[C@H](Cc3c[nH]cn3)NC2=O)C(=O)N[C@@H]([C@@H](C)O)C(=O)N[C@@H](CCCCN)C(=O)N[C@@H](CCCNC(=N)N)C(=O)N[C@@H](CO)C(=O)N[C@@H](CC(C)C)C(=O)N[C@@H](C)C(=O)N[C@@H](CCCNC(=N)N)C(=O)N[C@@H](Cc2ccccc2)C(=O)N[C@H](C(=O)O)CSSC[C@@H](C(=O)NCC(=O)N[C@@H](CCSC)C(=O)N[C@@H](CO)C(=O)N[C@H](C(=O)N[C@@H](Cc2c[nH]c3ccccc23)C(=O)N[C@@H](CO)C(=O)O)[C@@H](C)O)NC1=O` [AQ1-KKKGGG-Glu^γ-C13-COOH], in data set [1], the AUC(0-inf) was 0.258 µM·h and the level at time molar at 24 h worked out at 0.24 nM. Also, on human RXFP1 receptor (CHO-K1 cells stably expressing human RXFP1, 10 min at 37° C., HTRF cAMP, average, read-out: hRXFP1/CHO-K1 cAMP EC50 (nM, avg)), the EC50 turned out to be 0.09 nM.
Take `CC[C@H](C)[C@@H]1NC(=O)[C@H](C)NC(=O)[C@H]([C@@H](C)CC)NC(=O)[C@H](CCC(N)=O)NC(=O)[C@H](C)NC(=O)[C@H](CCCNC(=N)N)NC(=O)[C@H](C(C)C)NC(=O)[C@H](CC(C)C)NC(=O)[C@H](CCC(=O)O)NC(=O)[C@H](CCCNC(=N)N)NC(=O)CNC(=O)[C@@H](NC(=O)[C@H](CC(C)C)NC(=O)[C@H](CCCCN)NC(=O)[C@@H](NC(=O)[C@@H](NC(=O)[C@H](CCC(=O)O)NC(=O)[C@H](CCC(=O)O)NC(=O)[C@H](CCSC)NC(=O)[C@H](Cc2c[nH]c3ccccc23)NC(=O)[C@H](CO)NC(=O)[C@H](C)N)C(C)C)[C@@H](C)CC)CSSC[C@@H]2NC(=O)[C@@H](NC(=O)[C@H](CCCCN)NC(=O)[C@H](CC(N)=O)NC(=O)[C@H](C)NC(=O)[C@H](CC(C)C)NC(=O)[C@H](C)NC(=O)[C@H](CO)NC(=O)[C@H](Cc3ccc(O)cc3)NC(=O)[C@H](CC(C)C)NC(=O)[C@@H](N)Cc3ccc(C(C)=NOCCNC(=O)[C@H](CCCCN)NC(=O)[C@H](CCCCN)NC(=O)[C@H](CCCCN)NC(=O)[C@H](CO)NC(=O)CNC(=O)CNC(=O)[C@H](CO)NC(=O)CNC(=O)CNC(=O)CC[C@H](NC(=O)CCCCCCCCCCCCC(=O)O)C(=O)O)cc3)CSSC[C@H](NC(=O)CNC(=O)[C@H](C(C)C)NC(=O)[C@H](Cc3c[nH]cn3)NC2=O)C(=O)N[C@@H]([C@@H](C)O)C(=O)N[C@@H](CCCCN)C(=O)N[C@@H](CCCNC(=N)N)C(=O)N[C@@H](CO)C(=O)N[C@@H](CC(C)C)C(=O)N[C@@H](C)C(=O)N[C@@H](CCCNC(=N)N)C(=O)N[C@@H](Cc2ccccc2)C(=O)N[C@H](C(=O)O)CSSC[C@@H](C(=O)NCC(=O)N[C@@H](CCSC)C(=O)N[C@@H](CO)C(=O)N[C@H](C(=O)N[C@@H](Cc2c[nH]c3ccccc23)C(=O)N[C@@H](CO)C(=O)O)[C@@H](C)O)NC1=O` [AQ1-KKKSGGSGG-Glu^γ-C13-COOH]: in data set [1], the AUC(0-inf) is 0.264 µM·h and the level at time molar at 24 h came out at 0.21 nM. Also, the EC50 at human RXFP1 receptor came out at 0.14 nM.

The values are drawn from US12097241B2, “Methods of treating kidney failure, and/or improving or stablizing renal function using modified relaxin polypeptides” (BRISTOL-MYERS SQUIBB COMPANY, priority 2017, dated 2024).
